Reference: paper PMC12730228, “Targeted NanoBiT Screening Identifies a Novel Interaction Between SNAPIN and Influenza A Virus M1 Protein” (Biology, 2025)

What was measured:
SmN-SNAPIN (human) = SmN-SNAPIN (human) (UniProt O95295); assay: split reporter (BiFC, NanoBiT)
Flag-M1 = molecular target: T1, Flag-M1 (influenza A virus A/WSN/33 (H1N1), UniProt P05777 1-252); assay: pull-down; conditions: both partners purified
T1 construct: also called Flag-tagged M1; M1 protein; not shown: Flag, N-terminal, kept
T1 sequence (P05777 whole entry): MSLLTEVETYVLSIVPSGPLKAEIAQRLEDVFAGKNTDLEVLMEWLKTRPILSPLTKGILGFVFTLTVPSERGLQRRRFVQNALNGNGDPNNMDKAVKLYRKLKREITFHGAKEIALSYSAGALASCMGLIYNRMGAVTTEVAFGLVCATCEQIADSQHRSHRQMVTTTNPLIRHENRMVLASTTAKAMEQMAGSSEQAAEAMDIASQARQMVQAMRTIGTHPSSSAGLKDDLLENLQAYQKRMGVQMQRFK

SmN-SNAPIN = molecular target: T2, SmN-SNAPIN (human, UniProt O95295 1-136); assay: split reporter (BiFC, NanoBiT); conditions: partners not purified
T2 construct: also called SNAPIN-SmBiT; not shown: SmBiT, N-terminal, kept
T2 sequence (looked up): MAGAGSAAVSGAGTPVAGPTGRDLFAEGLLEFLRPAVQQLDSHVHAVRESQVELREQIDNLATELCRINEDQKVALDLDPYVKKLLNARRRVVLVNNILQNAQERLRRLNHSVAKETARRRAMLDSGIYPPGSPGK

Q: For LgN-NS2 (natural protein), which fold signal increase relative to the negative control (SmN-SNAPIN (human)) is on record?
A: 2.37 fold

B1: GST-SNAPIN (natural protein, human, UniProt O95295 1-136, looked up)
chain: T2 sequence (looked up)
notes: also called GST-tagged SNAPIN
Q: Does B1 bind (Flag-M1)?
A: binds

B2: LgN-M2 (natural protein)
chain: MSLLTEVETPIRNEWGCRCNDSSDPLVIAANIIGILHLILWILDRLFFKCIYRRFKYGLKRGPSTEGVPESMREEYRKEQQNAVDVDDGHFVNIELE
notes: also called matrix protein 2; not shown: LgBiT, N-terminal, kept
Q: How did the “fold signal increase relative to the negative control” value (SmN-SNAPIN) turn out when B2 was run?
A: 8.62 fold
